Read-outs that look alike come from different tables or passages of the source. Starred links: 1 amine or outer side, 2 acyl side, 3 side chain; linkers in the order of their positions; H or OH if unused. Positions of bridges follow the written chain, without caps; N, C: chain ends. Non-standard residues stand in square brackets, D forms with d. Groups on a side chain read outwards from the residue. *: point of attachment. Trp(1-Me) = Cn1cc(C[C@H](N)C(=O)O)c2ccccc21; C16 diacid = O=C(O)CCCCCCCCCCCCCCC(=O)*; γGlu = O=C(O)[C@H](CCC(=O)[*:2])N[*:1]; AEEA = NCCOCCOCC(=O)O; Sar = CNCC(=O)O
B1: Compound 71 (peptide)
peptide: Ac-SEYCI[Trp(1-Me)]QDWGEHRC[Sar]EA-NH2
modifications: disulfide 4-14
SMILES: CC[C@H](C)[C@@H]1NC(=O)[C@@H](NC(=O)[C@H](Cc2ccc(O)cc2)NC(=O)[C@H](CCC(=O)O)NC(=O)[C@H](CO)NC(C)=O)CSSC[C@@H](C(=O)N(C)CC(=O)N[C@@H](CCC(=O)O)C(=O)N[C@@H](C)C(N)=O)NC(=O)[C@H](CCCNC(=N)N)NC(=O)[C@H](Cc2c[nH]cn2)NC(=O)[C@H](CCC(=O)O)NC(=O)CNC(=O)[C@H](Cc2c[nH]c3ccccc23)NC(=O)[C@H](CC(=O)O)NC(=O)[C@H](CCC(N)=O)NC(=O)[C@H](Cc2cn(C)c3ccccc23)NC1=O
B2: Compound 72 (peptide)
peptide: Ac-FCI[Trp(1-Me)]QDW[Sar]EHRCTGAES-NH2
modifications: disulfide 2-12
SMILES: CC[C@H](C)[C@@H]1NC(=O)[C@@H](NC(=O)[C@H](Cc2ccccc2)NC(C)=O)CSSC[C@@H](C(=O)N[C@H](C(=O)NCC(=O)N[C@@H](C)C(=O)N[C@@H](CCC(=O)O)C(=O)N[C@@H](CO)C(N)=O)[C@@H](C)O)NC(=O)[C@H](CCCNC(=N)N)NC(=O)[C@H](Cc2c[nH]cn2)NC(=O)[C@H](CCC(=O)O)NC(=O)CN(C)C(=O)[C@H](Cc2c[nH]c3ccccc23)NC(=O)[C@H](CC(=O)O)NC(=O)[C@H](CCC(N)=O)NC(=O)[C@H](Cc2cn(C)c3ccccc23)NC1=O
B3: Compound 74 (peptide)
peptide: Ac-SEFCI[Trp(1-Me)]QDWGEHRC[Sar]GAES-NH2
modifications: disulfide 4-14
SMILES: CC[C@H](C)[C@@H]1NC(=O)[C@@H](NC(=O)[C@H](Cc2ccccc2)NC(=O)[C@H](CCC(=O)O)NC(=O)[C@H](CO)NC(C)=O)CSSC[C@@H](C(=O)N(C)CC(=O)NCC(=O)N[C@@H](C)C(=O)N[C@@H](CCC(=O)O)C(=O)N[C@@H](CO)C(N)=O)NC(=O)[C@H](CCCNC(=N)N)NC(=O)[C@H](Cc2c[nH]cn2)NC(=O)[C@H](CCC(=O)O)NC(=O)CNC(=O)[C@H](Cc2c[nH]c3ccccc23)NC(=O)[C@H](CC(=O)O)NC(=O)[C@H](CCC(N)=O)NC(=O)[C@H](Cc2cn(C)c3ccccc23)NC1=O
B4: Compound 76 (peptide)
peptide: Ac-SEFCI[Trp(1-Me)]QDW[Sar]EHRC[Sar]EA-NH2
modifications: disulfide 4-14
SMILES: CC[C@H](C)[C@@H]1NC(=O)[C@@H](NC(=O)[C@H](Cc2ccccc2)NC(=O)[C@H](CCC(=O)O)NC(=O)[C@H](CO)NC(C)=O)CSSC[C@@H](C(=O)N(C)CC(=O)N[C@@H](CCC(=O)O)C(=O)N[C@@H](C)C(N)=O)NC(=O)[C@H](CCCNC(=N)N)NC(=O)[C@H](Cc2c[nH]cn2)NC(=O)[C@H](CCC(=O)O)NC(=O)CN(C)C(=O)[C@H](Cc2c[nH]c3ccccc23)NC(=O)[C@H](CC(=O)O)NC(=O)[C@H](CCC(N)=O)NC(=O)[C@H](Cc2cn(C)c3ccccc23)NC1=O
B5: Compound 77 (peptide)
peptide: Ac-SEFCI[Trp(1-Me)]QDW[Sar]EHRCTEA-NH2
modifications: disulfide 4-14
SMILES: CC[C@H](C)[C@@H]1NC(=O)[C@@H](NC(=O)[C@H](Cc2ccccc2)NC(=O)[C@H](CCC(=O)O)NC(=O)[C@H](CO)NC(C)=O)CSSC[C@@H](C(=O)N[C@H](C(=O)N[C@@H](CCC(=O)O)C(=O)N[C@@H](C)C(N)=O)[C@@H](C)O)NC(=O)[C@H](CCCNC(=N)N)NC(=O)[C@H](Cc2c[nH]cn2)NC(=O)[C@H](CCC(=O)O)NC(=O)CN(C)C(=O)[C@H](Cc2c[nH]c3ccccc23)NC(=O)[C@H](CC(=O)O)NC(=O)[C@H](CCC(N)=O)NC(=O)[C@H](Cc2cn(C)c3ccccc23)NC1=O
B6: Compound 78 (peptide)
peptide: Ac-SEFCI[Trp(1-Me)]QDWGEHRC[Sar]E-NH2
modifications: disulfide 4-14
SMILES: CC[C@H](C)[C@@H]1NC(=O)[C@@H](NC(=O)[C@H](Cc2ccccc2)NC(=O)[C@H](CCC(=O)O)NC(=O)[C@H](CO)NC(C)=O)CSSC[C@@H](C(=O)N(C)CC(=O)N[C@@H](CCC(=O)O)C(N)=O)NC(=O)[C@H](CCCNC(=N)N)NC(=O)[C@H](Cc2c[nH]cn2)NC(=O)[C@H](CCC(=O)O)NC(=O)CNC(=O)[C@H](Cc2c[nH]c3ccccc23)NC(=O)[C@H](CC(=O)O)NC(=O)[C@H](CCC(N)=O)NC(=O)[C@H](Cc2cn(C)c3ccccc23)NC1=O
B7: Compound 79 (peptide)
peptide: Ac-SEFCI[Trp(1-Me)]QDW[Sar]EHRC[Sar]E-NH2
modifications: disulfide 4-14
SMILES: CC[C@H](C)[C@@H]1NC(=O)[C@@H](NC(=O)[C@H](Cc2ccccc2)NC(=O)[C@H](CCC(=O)O)NC(=O)[C@H](CO)NC(C)=O)CSSC[C@@H](C(=O)N(C)CC(=O)N[C@@H](CCC(=O)O)C(N)=O)NC(=O)[C@H](CCCNC(=N)N)NC(=O)[C@H](Cc2c[nH]cn2)NC(=O)[C@H](CCC(=O)O)NC(=O)CN(C)C(=O)[C@H](Cc2c[nH]c3ccccc23)NC(=O)[C@H](CC(=O)O)NC(=O)[C@H](CCC(N)=O)NC(=O)[C@H](Cc2cn(C)c3ccccc23)NC1=O
B8: Compound 80 (peptide)
peptide: Ac-EFCI[Trp(1-Me)]QDWGEHRC[Sar]EA-NH2
modifications: disulfide 3-13
SMILES: CC[C@H](C)[C@@H]1NC(=O)[C@@H](NC(=O)[C@H](Cc2ccccc2)NC(=O)[C@H](CCC(=O)O)NC(C)=O)CSSC[C@@H](C(=O)N(C)CC(=O)N[C@@H](CCC(=O)O)C(=O)N[C@@H](C)C(N)=O)NC(=O)[C@H](CCCNC(=N)N)NC(=O)[C@H](Cc2c[nH]cn2)NC(=O)[C@H](CCC(=O)O)NC(=O)CNC(=O)[C@H](Cc2c[nH]c3ccccc23)NC(=O)[C@H](CC(=O)O)NC(=O)[C@H](CCC(N)=O)NC(=O)[C@H](Cc2cn(C)c3ccccc23)NC1=O
B9: Compound 83 (peptide)
peptide: Ac-SEFCI[Trp(1-Me)]QEWGEHRC[Sar]EA-NH2
modifications: disulfide 4-14
SMILES: CC[C@H](C)[C@@H]1NC(=O)[C@@H](NC(=O)[C@H](Cc2ccccc2)NC(=O)[C@H](CCC(=O)O)NC(=O)[C@H](CO)NC(C)=O)CSSC[C@@H](C(=O)N(C)CC(=O)N[C@@H](CCC(=O)O)C(=O)N[C@@H](C)C(N)=O)NC(=O)[C@H](CCCNC(=N)N)NC(=O)[C@H](Cc2c[nH]cn2)NC(=O)[C@H](CCC(=O)O)NC(=O)CNC(=O)[C@H](Cc2c[nH]c3ccccc23)NC(=O)[C@H](CCC(=O)O)NC(=O)[C@H](CCC(N)=O)NC(=O)[C@H](Cc2cn(C)c3ccccc23)NC1=O
B10: Compound 84 (peptide)
peptide: Ac-SEFCI[Trp(1-Me)]QDWGEHRCSEA-NH2
modifications: disulfide 4-14
SMILES: CC[C@H](C)[C@@H]1NC(=O)[C@@H](NC(=O)[C@H](Cc2ccccc2)NC(=O)[C@H](CCC(=O)O)NC(=O)[C@H](CO)NC(C)=O)CSSC[C@@H](C(=O)N[C@@H](CO)C(=O)N[C@@H](CCC(=O)O)C(=O)N[C@@H](C)C(N)=O)NC(=O)[C@H](CCCNC(=N)N)NC(=O)[C@H](Cc2c[nH]cn2)NC(=O)[C@H](CCC(=O)O)NC(=O)CNC(=O)[C@H](Cc2c[nH]c3ccccc23)NC(=O)[C@H](CC(=O)O)NC(=O)[C@H](CCC(N)=O)NC(=O)[C@H](Cc2cn(C)c3ccccc23)NC1=O
B11: Compound 87 (peptide)
peptide: Ac-GEFCI[Trp(1-Me)]QDWGEHRC[Sar]EA-NH2
modifications: disulfide 4-14
SMILES: CC[C@H](C)[C@@H]1NC(=O)[C@@H](NC(=O)[C@H](Cc2ccccc2)NC(=O)[C@H](CCC(=O)O)NC(=O)CNC(C)=O)CSSC[C@@H](C(=O)N(C)CC(=O)N[C@@H](CCC(=O)O)C(=O)N[C@@H](C)C(N)=O)NC(=O)[C@H](CCCNC(=N)N)NC(=O)[C@H](Cc2c[nH]cn2)NC(=O)[C@H](CCC(=O)O)NC(=O)CNC(=O)[C@H](Cc2c[nH]c3ccccc23)NC(=O)[C@H](CC(=O)O)NC(=O)[C@H](CCC(N)=O)NC(=O)[C@H](Cc2cn(C)c3ccccc23)NC1=O
B12: Compound 102 (peptide)
peptide: Ac-FCI[Trp(1-Me)]QDWGEHRCTGAESK([AEEA-AEEA-γGlu-C16 diacid])-NH2
modifications: disulfide 2-12
SMILES: CC[C@H](C)[C@@H]1NC(=O)[C@@H](NC(=O)[C@H](Cc2ccccc2)NC(C)=O)CSSC[C@@H](C(=O)N[C@H](C(=O)NCC(=O)N[C@@H](C)C(=O)N[C@@H](CCC(=O)O)C(=O)N[C@@H](CO)C(=O)N[C@@H](CCCCNC(=O)COCCOCCNC(=O)COCCOCCNC(=O)CC[C@H](NC(=O)CCCCCCCCCCCCCCC(=O)O)C(=O)O)C(N)=O)[C@@H](C)O)NC(=O)[C@H](CCCNC(=N)N)NC(=O)[C@H](Cc2c[nH]cn2)NC(=O)[C@H](CCC(=O)O)NC(=O)CNC(=O)[C@H](Cc2c[nH]c3ccccc23)NC(=O)[C@H](CC(=O)O)NC(=O)[C@H](CCC(N)=O)NC(=O)[C@H](Cc2cn(C)c3ccccc23)NC1=O

Columns and labels:
Human C3 [1] = target: T1, Human C3 (human, UniProt P01024 23-1663); assay: cell-based or functional assay
T1 sequence (P01024 23-1663 limits assumed): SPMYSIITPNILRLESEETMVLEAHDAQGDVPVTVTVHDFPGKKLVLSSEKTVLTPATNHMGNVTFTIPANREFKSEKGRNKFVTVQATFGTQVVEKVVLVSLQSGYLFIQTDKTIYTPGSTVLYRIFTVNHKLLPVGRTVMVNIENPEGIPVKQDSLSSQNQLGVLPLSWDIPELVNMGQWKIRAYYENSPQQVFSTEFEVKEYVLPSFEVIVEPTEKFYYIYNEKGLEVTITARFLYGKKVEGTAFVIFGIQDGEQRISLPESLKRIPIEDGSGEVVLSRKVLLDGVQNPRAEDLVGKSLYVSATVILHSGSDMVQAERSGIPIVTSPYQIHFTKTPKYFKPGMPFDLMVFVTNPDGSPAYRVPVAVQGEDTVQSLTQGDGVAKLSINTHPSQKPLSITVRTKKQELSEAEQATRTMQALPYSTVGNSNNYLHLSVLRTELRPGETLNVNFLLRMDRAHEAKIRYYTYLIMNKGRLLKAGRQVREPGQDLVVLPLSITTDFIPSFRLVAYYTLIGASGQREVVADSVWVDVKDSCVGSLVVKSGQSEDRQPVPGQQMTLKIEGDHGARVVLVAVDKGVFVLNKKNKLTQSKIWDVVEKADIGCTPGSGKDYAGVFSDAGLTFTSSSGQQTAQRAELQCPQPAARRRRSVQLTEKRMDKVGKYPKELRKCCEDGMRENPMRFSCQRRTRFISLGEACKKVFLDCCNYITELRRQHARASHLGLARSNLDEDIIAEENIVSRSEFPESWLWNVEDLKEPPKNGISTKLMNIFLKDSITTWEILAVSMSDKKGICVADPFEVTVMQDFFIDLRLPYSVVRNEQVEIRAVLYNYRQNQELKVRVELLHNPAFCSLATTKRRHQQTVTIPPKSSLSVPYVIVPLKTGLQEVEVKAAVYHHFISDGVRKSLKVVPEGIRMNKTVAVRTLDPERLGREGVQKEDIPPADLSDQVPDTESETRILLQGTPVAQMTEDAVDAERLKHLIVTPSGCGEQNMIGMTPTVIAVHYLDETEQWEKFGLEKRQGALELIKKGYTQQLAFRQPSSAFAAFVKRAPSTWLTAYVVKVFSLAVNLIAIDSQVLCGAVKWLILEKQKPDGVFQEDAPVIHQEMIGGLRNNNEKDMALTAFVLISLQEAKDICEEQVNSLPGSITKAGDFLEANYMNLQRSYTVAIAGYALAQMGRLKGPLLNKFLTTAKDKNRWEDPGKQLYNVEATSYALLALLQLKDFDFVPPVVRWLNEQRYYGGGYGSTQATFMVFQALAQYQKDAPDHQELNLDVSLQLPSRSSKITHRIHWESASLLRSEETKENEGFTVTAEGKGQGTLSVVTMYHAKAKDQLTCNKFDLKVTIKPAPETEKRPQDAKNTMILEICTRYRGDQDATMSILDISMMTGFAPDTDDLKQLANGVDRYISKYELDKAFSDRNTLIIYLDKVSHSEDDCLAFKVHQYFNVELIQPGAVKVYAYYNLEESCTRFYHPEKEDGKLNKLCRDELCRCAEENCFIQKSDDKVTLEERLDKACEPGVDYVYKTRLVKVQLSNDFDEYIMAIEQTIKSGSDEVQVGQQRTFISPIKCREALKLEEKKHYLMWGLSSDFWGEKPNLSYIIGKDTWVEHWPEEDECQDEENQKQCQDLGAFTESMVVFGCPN

Human C3 [2] = target: T1, Human C3; assay: SPR, C3 immobilised
Method: Surface plasmon resonance (SPR) was used to characterize peptides with respect to their binding affinity (Kd) for C3. Human C3 (Complement tech cat #A1 13c) was immobilised on individual flow cells of CM5 sensor chips (GE Healthcare) using standard amine coupling to a density of approximately 3000 resonance units (RU) in a buffer consisting of 10 mM phosphate pH 7.4, 150 mM NaCl, 0.05% Tween20.
For interaction experiments a multi-cycle experiment approach was used and performed using either a Biacore™ T200 or Biacore™ X100 instrument (GE Healthcare) at 25° C. Peptides were injected in increasing concentration series (5-8 different concentrations) for 60-120 s at a flow rate of 30 μL/min in a buffer consisting of 10 mM Tris buffer at pH 7.4, with 150 mM NaCl and 0.05% Tween20. This was followed by a dissociation period for up to 10 min. The C3 surface was regenerated between runs by a 45 s injection of 3 M MgCl₂.
Sensorgrams were double-referenced (reference surface, blanks) prior to analysis of the kinetic profiles by globally fitting data to a 1:1 Langmuir binding model to obtain association and dissociation rates for calculation of the equilibrium dissociation constant Kd. Each peptide was tested at in at least 2 independent experiments.

Human C3 [3] = target: T1, Human C3; assay: cell-based or functional assay; remark: listed apart in the source

Row | Binder | IC50[nM], inhibition of hemolysis (Human C3 [1]) | Kd (Human C3 [2]) | IC50[nM], inhibition of hemolysis (Human C3 [3])
1 | B1 | < 100 nM | – | –
2 | B2 | < 100 nM | – | –
3 | B3 | < 100 nM | – | –
4 | B4 | < 100 nM | – | –
5 | B5 | < 100 nM | – | –
6 | B6 | < 100 nM | – | –
7 | B7 | < 100 nM | – | –
8 | B8 | < 100 nM | – | –
9 | B9 | < 100 nM | – | –
10 | B10 | < 100 nM | – | –
11 | B11 | < 100 nM | – | –
12 | B12 | – | 1.7 nM | < 100 nM
